Results reported in patent US20220267452A1 (Chugai, published 2022).
Blank lines part the entries; values can stand above or below the binder they belong to.

Target: T1, wild-type human FGFR3 (hFGFR3 protein, SEQ ID NO: 1) (human, UniProt P22607 23-804)
T1 construct: Full-length cDNA expressed in CHO DXB11s cells; The construct used in PC10/FGFR3 WT cells is not described; also called FGFR3 WT; wild-type hFGFR3
Experiment: flow cytometry on hFGFR3/CHO DXB11s cells
Experimental: The binding activity of monospecific antibodies FGA0005 and FGA0007 and bispecific antibodies FGA0005/CD3-TRAB and FGA0007/CD3-TRAB against wild-type hFGFR3 or hFGFR3 S249C mutant on the cell surface of hFGFR3/CHO DXB11s cells and hFGFR3 S249C/CHO DXB11s cells prepared by the method described in Example 1 and parent strain CHO DXB11s cells was measured using flow cytometry.
After 9×10⁶ cells of each cell line were washed with FACS/PBS supplemented with 0.5% BSA, 450 μL of Fixable Viability Dye 780 (eBioscience) diluted 5000 times was added to each of the cells. 25 μL each of the prepared cell suspensions was dispensed into v-bottom 96 well plates (Greiner Bio-one). Monospecific antibodies FGA0005 and FGA0007 with twice the final concentration of 0.01, 0.1, 1 μg/mL were prepared. In addition, bispecific antibodies FGA0005/CD3-TRAB and FGA0007/CD3-TRAB with twice the final concentration of 5, 10, and 20 μg/mL were prepared. 25 μL solutions containing the monospecific antibodies FGA0005 bivalent Ab and FGA0007 bivalent Ab, and the bispecific antibodies FGA0005/CD3-TRAB and FGA0007/CD3-TRAB prepared at a double concentration were added to the v-bottom 96 well plates, and allowed to stand at 4° C. for 30 minutes. After the cells were washed with FACS/PBS, Goat anti-Human IgG Fc Cross-Adsorbed Secondary Antibody, Dylight 650 Conjugate (Invitrogen) diluted 100-fold with FACS/PBS was added at 50 μL each and left to stand at 4° C. for 30 minutes. Cells were washed with FACS/PBS and then analyzed by flow cytometry.

T1 sequence (P22607 other isoform, or with tags, fused parts or gaps): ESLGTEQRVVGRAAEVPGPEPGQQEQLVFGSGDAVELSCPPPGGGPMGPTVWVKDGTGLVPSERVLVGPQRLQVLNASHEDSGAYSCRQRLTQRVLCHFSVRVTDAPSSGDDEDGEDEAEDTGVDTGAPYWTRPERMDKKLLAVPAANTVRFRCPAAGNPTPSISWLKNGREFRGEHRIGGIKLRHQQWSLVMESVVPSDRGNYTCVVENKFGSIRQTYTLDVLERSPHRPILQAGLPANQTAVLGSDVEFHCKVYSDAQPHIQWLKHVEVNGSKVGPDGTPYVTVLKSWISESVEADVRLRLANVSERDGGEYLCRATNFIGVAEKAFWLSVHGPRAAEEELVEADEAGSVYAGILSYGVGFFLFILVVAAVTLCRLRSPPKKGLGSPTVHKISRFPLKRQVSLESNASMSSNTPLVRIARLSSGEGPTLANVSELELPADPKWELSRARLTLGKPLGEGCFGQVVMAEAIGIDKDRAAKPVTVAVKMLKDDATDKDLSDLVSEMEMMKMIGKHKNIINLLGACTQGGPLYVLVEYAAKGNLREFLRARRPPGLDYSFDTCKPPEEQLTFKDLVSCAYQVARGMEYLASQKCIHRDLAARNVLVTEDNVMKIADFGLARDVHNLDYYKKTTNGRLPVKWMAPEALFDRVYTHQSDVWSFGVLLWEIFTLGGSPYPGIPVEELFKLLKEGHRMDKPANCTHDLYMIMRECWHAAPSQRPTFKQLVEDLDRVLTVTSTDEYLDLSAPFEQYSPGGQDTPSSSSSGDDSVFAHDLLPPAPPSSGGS

binding result: no binding (tested: 0.01, 0.1, 1 µg/mL)
B1: FGA0007 bivalent Ab (FGA0007VH-F760mnN17/FGA0007VL-k0MTC) (antibody, human IgG1, kappa, N297A, V domains shown)
VH: QSVEESGGRLVTPGTPLTLTCTVSGFSLSSYPMSWVRQAPGKGLEWIGIISSSGRTYYASWAKGRFTISKASSTTAALKMTSLTTEDTATYFCARGGVYKYDDYGDYVLNLWGRGTLVTVSS
VL: AIEMTQTPFSVSAAVGGTVTINCQASENIYSNLAWYQQKPGQPPKLLIYAASYLASGVPSRFKGSGSGTDYTLTISGVQCADAATYYCQCTLYSSTYGVAFGGGTEVVVKR
notes: Rabbit-human chimeric bivalent (monospecific) antibody, expressed in Expi293 cells; also called monospecific antibody FGA0007

binding result: no binding (tested: 0.01, 0.1, 1 µg/mL)
B2: FGA0005 bivalent Ab (FGA0005VH-F760mnN17/FGA0005VL-k0MTC) (antibody, human IgG1, kappa, N297A, V domains shown)
VH: QSLEESGGRLVTPGTPLTLTCTASGFSLSTYWICWVRQAPGEGLEWIGYISSSGNTYYASWAKGRFTISKTSSTTVDLKMTSLTTEDTATYFCGGHNSDYITGWALDPWGPGTLVTVSS
VL: AAVLTQTASPMSAAVGGTVTINCQSSKSVYRDKWLSWFQQKPGQPPKLLIYGASNLASGVSSRFKGSGSGTQFTLTISDVQCDDAATYYCLGGYSDNSEDAFGGGTEVVVKR
notes: Rabbit-human chimeric bivalent (monospecific) antibody, expressed in Expi293 cells; also called monospecific antibody FGA0005

binding result: no binding (tested: 5, 10, and 20 µg/mL)
B3: FGA0005/CD3-TRAB (FGA0005VH-F760mnN17/FGA0005VL-k0MTC//TR01H113-F760mnP17/L0011-k0) (bispecific antibody, human IgG1, kappa, N297A)
heavy 1: QSLEESGGRLVTPGTPLTLTCTASGFSLSTYWICWVRQAPGEGLEWIGYISSSGNTYYASWAKGRFTISKTSSTTVDLKMTSLTTEDTATYFCGGHNSDYITGWALDPWGPGTLVTVSSASTKGPSVFPLAPSSKSTSGGTAALGCLVKDYFPEPVTVSWNSGALTSGVHTFPAVLQSSGLYSLSSVVTVPSSSLGTQTYICNVNHKPSNTKVDKKVEPKSCDKTHTCPPCPAPELRGGPKVFLFPPKPKDTLMISRTPEVTCVVVDVSHEDPEVKFNWYVDGVEVHNAKTKPREEQYASTYRVVSVLTVLHQDWLNGKEYKCKVSNKALPAPIEKTISKAKGQPREPQVYTLPPSREEMTKNQVSLTCLVKGFYPSDIAVEWESNGQPENNYKTTPPYLDSDGSFFLYSKLTVDKSRWQQGNVFSCSVMHEALHNHYTQESLSLSP
light 1: AAVLTQTASPMSAAVGGTVTINCQSSKSVYRDKWLSWFQQKPGQPPKLLIYGASNLASGVSSRFKGSGSGTQFTLTISDVQCDDAATYYCLGGYSDNSEDAFGGGTEVVVKRTVAAPSVFIFPPSDEQLKSGTASVVCLLNNFYPREAKVQWKVDNALQSGNSQESVTEQDSKDCTYSLSSTLTLSKADYEKHKVYACEVTHQGLSSPVTKSFNRGEC
heavy 2: QVQLVESGGGVVQPGGSLRLSCAASGFTFSNAWMHWVRQAPGKGLEWVAQIKDKSQNYATYVAESVKGRFTISRADSKNSIYLQMNSLKTEDTAVYYCRYVHYAAGYGVDIWGQGTTVTVSSASTKGPSVFPLAPSSKSTSGGTAALGCLVKDYFPEPVTVSWNSGALTSGVHTFPAVLQSSGLYSLSSVVTVPSSSLGTQTYICNVNHKPSNTKVDKKVEPKSCDKTHTCPPCPAPELRGGPKVFLFPPKPKDTLMISRTPEVTCVVVDVSHEDPEVKFNWYVDGVEVHNAKTKPREEQYASTYRVVSVLTVLHQDWLNGKEYKCKVSNKALPAPIEKTISKAKGQPREPQVYTLPPSRKEMTKNQVSLTCLVKGFYPSDIAVEWESNGQPENNYKTTPPYLDSDGSFFLYSKLTVDKSRWQQGNVFSCSVMHEALHNHYTQKSLSLSP
light 2: DIVMTQSPLSLPVTPGEPASISCRSSQPLVHSNRNTYLHWYQQKPGQAPRLLIYKVSNRFSGVPDRFSGSGSGTDFTLKISRVEAEDVGVYYCGQGTQVPYTFGQGTKLEIKRTVAAPSVFIFPPSDEQLKSGTASVVCLLNNFYPREAKVQWKVDNALQSGNSQESVTEQDSKDSTYSLSSTLTLSKADYEKHKVYACEVTHQGLSSPVTKSFNRGEC
notes: Made by Fab-arm exchange (2-MEA) of the bivalent FGA0005 antibody and the anti-CD3 antibody; also called bispecific antibody FGA0005/CD3-TRAB

binding result: no binding (tested: 5, 10, and 20 µg/mL)
B4: FGA0007/CD3-TRAB (FGA0007VH-F760mnN17/FGA0007VL-k0MTC//TR01H113-F760mnP17/L0011-k0) (bispecific antibody, human IgG1, kappa, N297A)
heavy 1: QSVEESGGRLVTPGTPLTLTCTVSGFSLSSYPMSWVRQAPGKGLEWIGIISSSGRTYYASWAKGRFTISKASSTTAALKMTSLTTEDTATYFCARGGVYKYDDYGDYVLNLWGRGTLVTVSSASTKGPSVFPLAPSSKSTSGGTAALGCLVKDYFPEPVTVSWNSGALTSGVHTFPAVLQSSGLYSLSSVVTVPSSSLGTQTYICNVNHKPSNTKVDKKVEPKSCDKTHTCPPCPAPELRGGPKVFLFPPKPKDTLMISRTPEVTCVVVDVSHEDPEVKFNWYVDGVEVHNAKTKPREEQYASTYRVVSVLTVLHQDWLNGKEYKCKVSNKALPAPIEKTISKAKGQPREPQVYTLPPSREEMTKNQVSLTCLVKGFYPSDIAVEWESNGQPENNYKTTPPYLDSDGSFFLYSKLTVDKSRWQQGNVFSCSVMHEALHNHYTQESLSLSP
light 1: AIEMTQTPFSVSAAVGGTVTINCQASENIYSNLAWYQQKPGQPPKLLIYAASYLASGVPSRFKGSGSGTDYTLTISGVQCADAATYYCQCTLYSSTYGVAFGGGTEVVVKRTVAAPSVFIFPPSDEQLKSGTASVVCLLNNFYPREAKVQWKVDNALQSGNSQESVTEQDSKDCTYSLSSTLTLSKADYEKHKVYACEVTHQGLSSPVTKSFNRGEC
heavy 2: B3 heavy 2
light 2: B3 light 2
notes: Made by Fab-arm exchange (2-MEA); also called bispecific antibody FGA0007/CD3-TRAB
